From the nanobody polyreactivity screen of Harvey et al. (2022)

Experiment: yeast display, Sf9 membrane polyspecificity reagent, FACS + sequencing; frameworks hold sequencing errors
In short: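 Galactose-induced (36–48 hours) yeast carrying a synthetic nanobody display library were exposed to 10% biotinylated, detergent-solubilized Sf9 membrane reagent at 4 °C for 1 hour. FACS followed streptavidin microbead enrichment, using low and high (top ~1%) gates for expression (anti-HA) and reagent binding (streptavidin). Colony PCR, MiSeq 2 × 250 sequencing and CDR-length filtering followed. Labels for polyreactivity reflect the gate of origin.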

Row | Sequence | polyreactivity (PSR sort gate)
1 | QVQLVESGGGLVQAGGSLRLSCAASGFTITAYAMGWYRQAPGKERELVAAISYSGGRTYYADSVKGRFTISRDIAKNTVYLQMNSLKTEDTAVYYCYAVLAHYQSLVYWGQGSQVTVSS | high polyreactivity
2 | QVQLVESGGGLVQAGGSLRLSCAASGRIFSYYAMGWYRQAPGKERELVAAISYSRTYYADSVKGRFTISRDNAKNTVLLQMNSLKPEDTAVYYCNVKSKYRYGYWGQGTQVTVSS | high polyreactivity
3 | QVQLVESGGGLVQAGGSLRLSCAASGSIFTYYAMGWYRQAPGKERELVASINWSGGRTYYADSVKGRFTISRDNAKNTVYLQMNSLKPEDTAVYYCNARSAYGTGNQRGRRYYWGQGTQVTVSS | high polyreactivity
4 | QVHLVESGGGLVQAGGSLRLSCAASGSIFSSYAMGWYRQATGKERELVASISSGGSTNYADSVKGRFTISRDNAKNTVYLQMNSLKPEDTAVYYCNVDLYNWRGDSTGYDYWGQGTQVTVSS | low polyreactivity
5 | HVQLVESGGGLVQAGGSLRLSCAASGLIFYNYAMGWYRQAPGKERELVAAITGSGGSTYYADSVKGRFTISRDNAKNTVYLQMNSLKPEDTAVYYCAADGIYTFEYWGQGTLVTVSS | low polyreactivity
6 | QVQLVESGGGLVQAGGSLRLSCAASGRIFPLYAMGWYRPAPGKERELVADISVTGTSTYYADSVKGRFTISRDNAKNTVYLQMNSLKPEDTAVYYCAADLWAYGPLWRWSRADYDYWGQGTQVTVSS | low polyreactivity
7 | QVQLVESGGGLVQAGGSLRLSCAASGGTFRVYAMGWYRQAPGKERELVAAITGRGGSTYYADSVKGRFTISRDNAKNTVYLQMNSLKPEDTAVYYCAKDPVTTYYKYDYWGQGTQVTVSS | low polyreactivity
8 | QVQLVESGGGLVQAGGSLRLSCDASGRTFVRYAMGWYRQAPGKERELVARITSRGTSTYYADSVKGRFTISRDNAKNTVYLQMNSLKPEDTAVYYCNKVRTFRDKSRYDYWGQGTQVTVSS | low polyreactivity
9 | QVQLVESGGGLVQAGGSLRLSCAASGLIFNKYAMGWYRQAPGKERELVATIRRDGSTNYADSVKGRFTISRDNAKITVYLQLNILKPEDTAVYYCAADSYYTRDDYWGQGTQVTVSS | high polyreactivity
10 | QFQLVESGRGLVQAGVSLRLSCASSGFTFILYAIGCYRQATGKERELVAGISNGGSTYYADSVKGRFTISRDNAKNTVYFQMNSLKPEDTAVDYCNRDLTFYLYVSGNYFGQGTQVTVSS | low polyreactivity
11 | QVQLQESGGGLVQGGGSLRLSCAASGSNYRSWYMGWYRQAPGKERELVASITEGATTNYAYSVKAALPLAAITRNTVYLQMDSMKPEDTAVYYRAASFGSTYDLVYWGQGTQVTVSS | high polyreactivity
12 | QVQLVESGGGLGQAGGSLRLSCAASGSIFDINAMGWYRQAPGKERELVAANRENGGDTYYPDSVKGRFTISRDNAKHTVYLQMNSLKPEDTAVYYCAAYSGDQAYQGDYWGQGTQVTVSS | low polyreactivity
13 | QVQLVESGGGLVQAGGSLRLSCAASGSILDTNAMGWYRQAPGKERELVARIDIDGSTNYADSVKGRFTISRDNAKNTVYLQMNSLKPEDTAVYYCNKDHSSYGASGYDYWGQGTQVTVSS | low polyreactivity
14 | QVQLVESGGGLVQAGGSLSLSCAASGRTFNSNAMGWYRQAPGKERELVAAISNRGTRTYYADSVKGRFTISRDNAKNTVYLQMNSLKPEDTAVYYCAASERDQRFKHYYWGQGTQVTVSS | high polyreactivity
15 | QVQLVESGGGLVQAGGSLRLSCAASGGTFRAYVMGWYRQAPGKERELVAAISRRGGSTYYADSVKGRFTISRDNAKNTVYLQMNSLKPEDTAVYYCNAPRLLLSYTPGLDRWPYGVYWGQGTQVTVSS | high polyreactivity
16 | QVQLVESGGGLVQAGGSLRLSCAASGGNFEWNAMGWYRQAPGKERELVAAISNTGGSTSYADSVKGRFTISRDNAKNTVYLQMNSLKTEDTAVYYCNTVNRYEFGYWGQGSQVTVSS | high polyreactivity
17 | QVQHVESGGGLVQAGGSLRLSCAASGFTFYRYTMGWYRQAPGKERELVAAISRGGRTYYADSVKGRFTISRDNAKNTVYLQMNSLKPEDTAVYYCAARTWIARRGRYNYWGQGTQVTVSS | high polyreactivity
18 | QVQLVESGGGLVQAGGSLRLSCAASVRIFVDNTMGLYRQAPGKERELVAVITSGGSTNYADSVKGRFTISRDNAKNTVYLQMNSLKPEDTAVYYCATEPGGDRFDDRPFQYGYWGQGTQVTVSS | low polyreactivity
19 | QVQLVESGGGLVQAGGSLRLSCAASGNTFYRYAMGWYRQAPGKERELVAAISWSGSSTYYADSVKGRFTISRDNAKNTVYLQMNSLKPEDTAVYYCAAGTYDGGYHYDYWGQGTQVTVSS | high polyreactivity
20 | QVQLVESGGGLVQAGGSLRISCAASGSIFAWNAMGWYRQAPGKERELVAAISRSGGRTYYADSVKGRFTISRDNAKNTVYLQMNSLKPEDTAVYYCNAYGLRWASRLGYDYWGQGTQVTVSS | high polyreactivity
21 | QFHLVESGGGLVQAGGSLRLSCAASGITFGYYAMGWYRQAPGKERELVAAISGSASRTYYADTVKGRFTISRDNAKNTVYLQMNSLKQEDTAVYYCNARGGGTASCYYYWGPGTQVTVSS | high polyreactivity
22 | QVQLVESGGGLVQAGGSLRLSCAASGSIFTYYAMGWYRQAPGKEREFVAAISRRGGSTYYADSVKGRFTISRDNAKNTVYLQMNSLKPEDTAVYYCAATYPYRGFYGIRSQFDYWGQGTQVTVSS | high polyreactivity

Row | Sequence | polyreactivity (PSR sort gate)
23 | QVQLVESGGGLVQSGGSLRLSSAAYGNTFFPYTIGRYRQAPGKERELVAAISWNGGTTYYADSVKGRFTISRDNAKNTVYLQMISLKPEDSAVYYCAAPRASGYYWGQGTQVTVSS | high polyreactivity
24 | QVQLVESGGGLVQAGGSLRLSCAASGSIFRDNVMGWYRQAPGKERELVAAISKRGGSTYYADSVKGRFTISRDNAKNTVYLQMNSLKPEDTAVYYCAAPQGRSHYYRYDYWGQGTQVTVSS | high polyreactivity
25 | QVQLVESGGGLVQAGGSLRLSCAASGFTFGSNVMGWYRQAPGKERELVATIRRGGSTNYADSVKGRFTISRDNAKNTVYLQMNSLKPEDTAVYYCATGYAVYLSRRDYWGQGTQVTVSS | high polyreactivity
26 | QVQLVESGGGLVHAGGSLRLSCAASGFIFYQYAMGWYRQAPGQERELVAAISKSGGNTNYADSVKGRFTISRDNAKNTVYLQMNSLKPEDTAVYYCAADRGQRGLYYWGQGTQVTVSS | high polyreactivity
27 | QVQLVESGGGLVQAGGSLRLSCAASGFTIPTYAMVWYRQAPGKERELVAAITRGGSTYYADSVKGRFTISRDNAKYTVYLQMNSLKPEDTAVYYCAADDPWYEEDYWGQGTQVTVSS | low polyreactivity
28 | QVQLVESGGGLVQAGGSLRLSCAASGGIFAIYAMGWYRQAPGKEREFVATISWRGGSTYYADSVKGRFTISRDNAKNTVYLQMNSLKPEDTAVYYCAAPHFSYSGGTHDYWGQGTQVTVSS | high polyreactivity
29 | QVQLVESGGGLVQAGGSLRLSCAASGRTFGYNAMGWYRQAPGKESELVAAINWSGASTYYADSVKGRFTISRDNAKNTVYLQMNSLKAEDTAVYYCAADYSYIYGFDYWGQGTQVTVSS | low polyreactivity
30 | QVQLVESGGGLVQAGGSLRLSCAASGRTFHFYAMGWYRQAPGKERELVASITWSAVRTYYADSVKGRFTISRDNAKNTVYLQMNSLKQVDTAVYYCAKEWDYRLMDYWGQGTQVTVSS | low polyreactivity
31 | QVQLVESGGGLVQAGGSLRLSCAASGRTFLYNAMGWYRQAPGKERELVATITWSDDGTYYADSVKGRFTISRDNAKNTVYLQMNSLKPEDTAVYYCAAVYPRTRVKMDYWGQGTQVTVSS | low polyreactivity
32 | QVQLVESGGGLVQAGGSLRLSCAASGRTFFYYAMGWYRQAPGKERELVAAISGRGGSTYYADSVKGRFTISRDNAKNTVYLQMNSLKPVDTAVYFCAAQSPFRRYTSPWYDYWGQGTQVTVSS | high polyreactivity
33 | QVQLVESGGGLVQAGGSLRLSCAASGSIFPDNVMGWYRQAPGKEREFVAAISWTDGSTRYADSVKGRFTISRDNAKNTVYLQMNSLKPEDTAVYYCNVGTRASYQEGDYWGQGTQVTVSS | low polyreactivity
34 | QVQLVDSGGGLVQAGGSLRLSCAASGSIFYHNAMGWSRQAPGKERELVAAITWSGSTTYYADSVKGRFTISRDNAKNTVYLQMNRLKPEDTAVYYCAVDIYYYSNVHYYYWGQGTQVTVSS | low polyreactivity
35 | QVQLEESGGGLVQAGGSLRLSSAASGSIFGVNPMGWYRQTPGKERELVARINWSSGRTYYADSVKGRFTISRDNAKNTVYLQMNCLKPEDTAVYYCAAAYWRPGVRFFGPYDYWGQGTQVTVSS | high polyreactivity
36 | QVQLVESGGGLVQAGGSLRLSCAASGRIFVGYAMGWYRQATGKERELVAAISARGGSTYYADSVKGRCTISRDNAKNTVYIQMNSLKPEDTAVYYCAADEASSRGYYDYDYWGQGTQVTVSS | low polyreactivity
37 | QVQLVESGGGLVQAGGSLRLSCAASGLTFWPYAMGWYRQAPGKERELVAAISSSGRTYYADSVKGRFTISRDNAKNTVYLQMNSLKPEDTAVYYCARRFWFHYYGYDYWGQGTQVTVSS | high polyreactivity
38 | QVQLVESGGGLVQAGGSLRLSCAASGSTFNFYAMGWYRQAPGKDREFVAAITSSGDSTYYADSVKGRFTISRDNAKNTAYLQMNSLKPEDTAVYYCAARLRWRYSYDYWGQGTQVTVSS | high polyreactivity
39 | QVQLVESGGGLVQAGGSLRLSCAASGRTFIPYAMGWYRQAPGKVRELVAAIRNGGSTNYADSVKGRFTISRDNAKNTVYLQMNSLKPEATAVYYCNADLPVYVDYINGGYGYWGQGTQVTVSS | low polyreactivity
40 | QVQLVESGGGLVQAGGSLRLSGSASGIIFIYYTIGWYRQAPGTESELVAVITTSGDGTYYADSVKGRFTISRDNAKNTVYLQMNSLKPEDTAVYYCAASYSTWVSTRNDYWGQGTQVTVSS | low polyreactivity
41 | QVQLVESGVGLVQAGGSLRLSCAASGRSFGPYAMGWYSQAPGKERELVAAISSSGGSTYYADSVKGRFTISRDNAKNNVYLQMNSLKPEDTAVYYCATYFARGYNSWGQGTQVTVSS | high polyreactivity
42 | QVQLVESGGGLVQAGGSLRLSCAASGSTFGSYAMGWYRQAPGKERELVAAITASGGSTYYADSVKGRFTISRDNAKNTVYLQMNSLKPEDTAVYYCAADTTYIPLSIEYDYWGQGTQVTVSS | low polyreactivity
43 | QVQLVESGGGLVQAGGSLRLSCAASGSTFPANAMGCYRQAPGKERELVATISWSCGRTYYADSVKGRFTISRDNAKNTVYLQMNSLKPEDSAVYYCAKGYYWLSTYGDSRYGYWGQGTQVTVSS | high polyreactivity
